Laboratory results published in the supplement of paper PMC12636428.

The sequences below were run on Saccharomyces cerevisiae (assay: transcriptional activation domain activity (GFP:mCherry ratio, weighted mean of sorted bins, harmonized to initial dataset scale) (arbitrary fluorescence ratio units); higher = stronger transcriptional activation). Conditions: beta-estradiol 1 µM; induction time 4 h.
Method in brief: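 The listed activation activity is a read-weighted mean of bin median fluorescence, averaged across barcodes and linearly mapped onto the initial dataset scale. Barcoded tiles, fused to an estradiol-inducible synthetic transcription factor, were integrated at URA3 in yeast diploids bearing a GFP reporter. Cells were held 4 hours at 30 °C in SC with 1 uM beta-estradiol, sorted into 8 GFP:mCherry bins, and sequenced, and tiles with fewer than 50 reads were excluded.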

| Sequence | transcriptional activation domain activity |
| --- | --- |
| MLLLKCSLSWIIRKGIYRAKSVMYLWVVANECCSLSMAEWLFLHQSVCSICQC | 58100 |
| MADPQEDNTAPGTKRRRLRGSCDKCKQRKIRCDSSEMPGNRCSNCIAFSSECT | 31600 |
| CGQILLTICLLPLLFFFFFFFFWSKGVSPFLSHLSSVLLIMLGRIMQIVVGLW | 38300 |
| MTHILGYIHRSCYFLFLRSFLNFDISCCWITLSWLLCRSILYYCRPMVKILSS | 66300 |
| ICLALCTVLTTLTLGVSLYFGVVLVRSDFLWQVSFRDLTWSYFVAFGAQVIVD | 41100 |
| HSRSPSRHRRRSYSRSRRYDSRSPRRRRSGSPSRRIVDEEEAAVTDGFIRAVA | 37300 |
| WCVVLCMVLILPRLFYTILQMNDYNISPFNPNVNALYTSLLGYLPLLAVFIVM | 53800 |
| HLLIKILATRFFLEAKKTTYAPLNDQGTLMPSVEWTIMAQLWRLARNKWFEAT | 51000 |
| GASTPVTTGGKRKSDGGAGGSAKKERKTPAAKKDKEEKAPRGKANGAKATAAS | 22000 |
| YVVLQGLSGAASGFLQIVPLIIYYVKLFLMGSTPRSVYKIKYTLRHVSWGTLF | 66600 |
| SQNSNDTSSKGIVDPFVEQNNDITTALLNNELFQGPSLSDEVTDWFGASEDIG | 91000 |
| LCIDDKYILIYGQEDSNHKVTVRKVTLQLFMCLINYTVRNILWWSLSGLITGF | 38400 |
| ETGSEWREGSSDGFRSVKTVLLGVWAEYGGLRRNEICDTLRRLTLSSLGKINP | 53800 |
| PEALIQFNQVWVNHFKDPFTNIYYHQSPELSGSKYYELIYLRAFICLMFCFQF | 55100 |
| KGGKRKRREEDDGEEKDSFGGRRGDDGPSRIAKNEGGDGRAGKHKRSGDDGKE | 31100 |
| AVRAATSVLCKEMLRPGQSASLGLREAEEVECRMRALARLERVWVKTGASTNG | 54900 |
| TLRVLLLQISPLAYARGLKDFLIHLISWTDGTWDSLDPLPWWWLYHVYWPLQF | 81000 |
| QLFTFLLQTYRMKYLVQRVSPRTIRQINDVRLRHLSYKLRQRLIWFADIMRSY | 58900 |
| FLLCTFFAIFAFLLCYLLAFFSFHVFLYDDSLFLFYYCMSAACTFFCCMFLEF | 39600 |
| SSFVLCLLQCLDVPSLVELTVRRVNSRLRLLLSCKVLLAGLVRLAIHGDIEMA | 52200 |
| HSSIEWLMGWPAGLKLNKELALFLGDLFLWVIEYWSSCISALQPLLPHMVWFI | 39900 |

| Sequence | transcriptional activation domain activity |
| --- | --- |
| LCNVLRLYFYLLYFIFYRNLFARLRDVEQFAMIQIASSVWVTILYPMRMTRPV | 72900 |
| ENTRHRIFSIFRKSDLGLYALRGSQTLMNYSRVLGLLIRKWVITALRVCMWLG | 53000 |
| LFRDDEFWGIFASDVGLLVMMGWYGFKTLLWTYILPLMWVNHWIVMITYLHHT | 55100 |
| RDRRRRSRSRSRDRRNKRRRRELEDRSKRRRSKSRVKNEETSEAEKRGRRRKP | 37900 |
| MAITHAALPPMCRISLIRVWIETMLYGFNCVMYGLCMFIPVEGRLLLCWMLIV | 50700 |
| TLRVDSLTGMIRIIRHVDFDGLPRPSGSGVITPFGIVFGGVCRGYWLWLWKVD | 35800 |
| EIAEGDEAEAARPAKIPRKPRRKKAVEGEGANEEGGAAPPRPKRKRKTKSKSA | 42100 |
| FLLLMFQGLDIFTPVIRVLHFRICLLLLLLIILLAVPLLFSYIIFSRPFLSLV | 43900 |
| LWFFFKGMDGMLHPPCSTWTFFFAKVNLYTWLRTFMKIVFVFMGLLHAIIIFW | 60200 |
| SREFLWVGFGVRCMVLAKFQVIKGLKYIRTIIAQKNQSAGLAIELRILMVVWV | 43800 |
| GRMIRMWKRWSVMAHGMNRLKHYANYLPRLIVLLNKTLPQDVADIIKFNMLVC | 39100 |
| ATWKLVQIGYRRDESLFLYFFYFYLFLFCFNMCGSSFYLLLLCCHIHIVAHSV | 71000 |
| IEDSRRVDRGDEDKGREDHTRHRRRGSTDTGRRDERSHRDRRRSRSRSPASRR | 21900 |
| MYDFFLFLSFLPFPSPSLLCFLILFSFIYLLLFHFYIYIYICLFLSFYIHAFV | 10600 |
| EIPIQLGCIHLHSLWMTYALLYQLIYPMMMIYNLVNCIYFGSGLQIAWWMFSI | 44200 |
| MAVIWGLDLKDMQWSKFKGSYMFNNVYHLRKVKMIVYQIAMILCVVSESVGTA | 66800 |
| SAPNDSTTAPTNASNIANTASVNKQMYFMNMNMNNNPHALNDPSILETLSPFF | 71400 |
| SHQVLSCLAIFVFPRLAFITLSDNLLILSLRSMMSDFVFLMLLGAWCFLGFLY | 55200 |
| FFFVNGMWYNMAYIFGSWKLGWWELGAKIFVFQEVYETLLYLLTPFILPISFY | 48600 |
| KEVKEGEEGEKPKRGRKRKEAPAENGEEKEEKEPAAKKAKPASKAAPGSKPAS | 12700 |
| TGLDGTAYVMFWTINVNVLMLLSQWILEERVRSRALQFCFRYYYFMVYFIFYR | 55300 |

| Sequence | transcriptional activation domain activity |
| --- | --- |
| CVFRLGFLFIFLVSYSIAWEWFFLFSLWHLCLLPLDIISIFLLFLGPLLWRSF | 31500 |
| GYVYVSGFLALVIVVSTYFYMLSRLVLLVLPFLYLRSLSPAAYHVVHWTSFIP | 61000 |
| LLFLLAHWHALAKLRMHTDSTLTLLDCATKSLGAALRDFQTKVCPAFNTHELR | 51400 |
| AAPVVAKKDDKKDKKKEEKKGEKEEKKPADEKKGGDKPKKEKKKAEKKPAAAP | 22200 |
| GRADARRGRRRRGGGGEGRRGTGDGGRGKTRGGEAGKERRTENRGARGGATRG | 39600 |
| MHSPHNCRVSKHFVIFCFFFFFFLFCRPLPLLSNLILTLFFSSFFLLGLFGVL | 64700 |
| MPLMIIFRFTIFIFILFQFLSFPSFGRGVFLSFIFFFIIFFSFHDQLFLILFF | 57000 |
| MAGQNNPFVGAVFSGLFLGYMILAAALSIFFLLYFNRVFASIVSWGIRAWTWR | 31200 |
| HGTLCDIYLVIILKCCGDDDNSVSLVEGIALAPSSARSNAFERVGKFGGGPES | 46900 |
| MLIGTVFLICSLNLCLLFLGWAWGCIVLYLDDLNILLLSCLFTFFLCTFTFFS | 40900 |
| IGIVYLLLCPFAFIFAYYFMRLRRTLIGSMPLSVINDPLLVELKVRFQLLDRG | 42000 |
| LSHSFFSSCCCLLRTLGRFLLFIIFFLSFYFLPFFFSFQTYLLLYLLLIVYFH | 29700 |
| DYTNWLGRNIVAWASKEPSTDDVKLCSGLLVKGLRLGHSDALVKLLVSMLFLT | 49000 |
| GNDEAGAEDTDEDEIEGEGEEGQAPADGNEEEGAGEGESSRAMKKIGKKKAEK | 16600 |
| LLKKCLKSSFGKSNEVTTYCLEFFGNVYRWSEMYWSSTWPVLLLVHALKSKQK | 52700 |
| MGRVGGLFIMEGCLCVYRLLLYPSSCVWVSDTRGWLWLWWLWWWVVVVVWGVC | 44600 |
| FLVLRYGALIGHVPLFYNVFADPCKTPHLIHILAFYHYIFVFVLTALTTVLLV | 49400 |
| MGWFTFAFWYPPHLLYFLFYLPPPPLFPSHSLEFFSFCICNLTMFILSTFFFA | 50200 |
| DTCTKVHGRVFSREVHHIRFNRITTSTIVALRVASEVGAIWMLPMIYYTIVCW | 24200 |
| ISVLGNQQIPGISHGDGLLPDVDGLLGNDTFWSFTDAAWMGEIEDNISGFIWD | 143000 |
| KIHLVNLAQVSVFFIHRVLYGIIPLFEIKTCAYFPLLVSLWHMTYILFYIVMF | 71200 |

| Sequence | transcriptional activation domain activity |
| --- | --- |
| SSSSSRVACGQVVKCGSEVVATSNGAYPVQEGDSCSRARRQSTGSVVNRTTRP | 26400 |
| LLKGLTLRNPAILKLEEDEDEAALLTQYAVKCSEVDKFLLTYVILKLKLIKGK | 33200 |
| ASGAGAVKKAPKSPKAVATAKVGAKAAKPKAGAKATKPKAAKPKAAKAAAAGA | 20900 |
| MTTNRDKAFFFFFNCERPIFNFFFCPFFLFFYIPFYFPYPYFFSFSYFSFLYL | 78200 |
| MVVILYFFFYIFIKNRLGLVRVIFLFLVYHIQLLVLFFFGPFLPLVLLLLLLL | 35900 |
| KPEPAGEKGEGAASGGEGQSGGEGGRRRPSGRGRGRGRGRGGRGGRANRGSRG | 38800 |
| LCKAIQFCVFLGFALAGYNFEPWHQLIVYETLCFVLFLSRVLLTIQYAVVLVY | 61400 |
| NFIIQGNSMISTPSGRNDLPDTSPMSSIQTASPPSQLLTDQGFADLDNFMSSL | 74500 |
| KKKKRKKKTPSKGESEEKGDDEDDEDEKKQTPKANTGAKKTKATGKTDREKKE | 51500 |
| GFMLIFWNLAGVPLSYCHCSIFVANHLDTITSWGGDFRLPLLVLLFTSYLFMY | 42000 |
| MFTWNRMKVLTVHAPCRTGGLARLFYNFCIKHPAMNIAWWIDEILFPLYHLAR | 53100 |
| AVKKEPTPEEDEEEEEEEPAPKPKARGGRKAKASAAVDADAAQAKPKRGRAKK | 30300 |
| PKRASQGRNFNTLFDKYFTGKDWEIHIMRTLRPDIFILLCVLFVPTEFKEIHD | 37700 |
| YEASNHPEFDLNADVGLVIQVLEQTHSHTPIKLCSLIVKLQVVSGFLSYLESD | 32800 |
| RRNRRTDKKRNEKESEHEGSTRKRTSYDKDDERAHSDSRRSRHHHRKERKNRH | 32100 |
| LFSFSVAYRYFYFFWYVVLERQIRIFRWIAVSIFVWTLVIGFSLYQGLTKQYI | 31800 |
| MCLLGDGRHPEFFIFYFLYHFFLLYLLFYPQAFSRYLFIWMGCLNCFYFRFGL | 41000 |
| FPAHFLSLLLTPISFSPLPIFPCTYINFLPLLQYLLLGNFFFGCIIWRPMTFC | 59000 |
| TSPAPASSANGPAPPRRKRQATTAACRACRKRKSKCDGARPTCSVCRDRKTKC | 13100 |
| AVVVTVWKLCDHPVMAWILGLIRCLTKKLKEVRQCKEELKQFFRDVVCKIEIA | 39000 |
